Measured values published in patent US20150017657A1, “ASSAY AND METHOD FOR IDENTIFYING COMPOUNDS THAT INHIBIT EXCITOTOXIC SIGNALS” (THE UNIVERSITY OF SYDNEY, priority 2011, published 2015).
No end group written: not given here.

Biological target: T1, Tau protein bound to Fyn protein (N-GFP-Fyn / C-GFP-Tau) (Homo sapiens, UniProt P06241)
T1 construct: A nucleic acid encoding amino acids 83-145 of human Fyn was cloned into the N-GFP-pLVX vector; N-GFP (GFP aa 1-158) with GGSG linker and XbaI-encoded SR; expressed in transfected cells; host or cells: COS-7 cells, lentiviral pLVX constructs, stably expressed
T1 sequence (P06241 83-145): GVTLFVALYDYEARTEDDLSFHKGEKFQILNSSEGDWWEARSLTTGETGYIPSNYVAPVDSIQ
Test: split-GFP reassembly assay of Tau/Fyn binding in transfected COS-7 cells
Format: cell-based
Settings: 200 nM peptide, 1 hour at 37 degree Celsius; COS-7 cells expressing N-GFP-Fyn and N-terminal C-GFP-Tau; plate reader or fluorescence microscope (FIG. 5)
Text: Lentiviruses containing either combination of constructs, i.e. N-terminal C-GFP fused to Tau and N-GFP fused to Fyn, or C-terminal C-GFP fused to Tau and N-GFP fused to Fyn, were then generated using standard protocols (e.g. Krupka et al., Plasmid, 2010, 63(3):155-60) and stably expressed in COS-7 cells.
However, transfection of constructs encoding N-terminal C-GFP fused to Tau and N-GFP fused to Fyn did result in green fluorescing cells (FIG. 5).
Cells generated by the methods described in Example 1 were grown till confluent in 96-well plates and then the fluorescence was measured in a 96-well plate reader (Omega, BMG) or by via fluorescence microscope. The cells were then incubated with 200 nM of the Tat-7PXXP peptide for 1 hour at 37 degree Celsius. The fluorescence was again measured in a 96-well plate reader (Omega, BMG) or via a fluorescence microscope.

Question: For YGRKKRRQRRRTPPKSPSS [Tat-7PXXP], which “fluorescence of the transfected cells” value is on record?
Answer: negligible
